Test results taken from paper PMC12754632, “ZapA uses a two‐pronged mechanism to facilitate Z ring formation in Escherichia coli” (mLife, 2025).
Where a chain is given by its changes, count along the chain named. Blank lines part the entries; values can stand above or below the binder they belong to.

Key:
FtsZ^D212N = target: T1, FtsZ^D212N (Escherichia coli, UniProt P0A9A6 1-383, D212N); test: pull-down; H-SUMO-ZapA (6 μM) and FtsZ (2 μM) in Pol buffer (50 mM HEPES-NaOH pH 6.8, 50 mM KCl, 10 mM MgCl2), GTP in the buffers throughout, held on Ni-NTA agarose, washed with 500 mM NaCl and 20 mM imidazole, eluted with 250 mM imidazole; fractions on SDS-PAGE; conditions: both partners purified
T1 construct: also called GTPase mutant (FtsZ^D212N); source: E. coli BL21/pLys, purified (Ni-NTA; His-SUMO tag cleaved with Ulp1); not shown: His-SUMO, N-terminal, cleaved
T1 sequence (looked up): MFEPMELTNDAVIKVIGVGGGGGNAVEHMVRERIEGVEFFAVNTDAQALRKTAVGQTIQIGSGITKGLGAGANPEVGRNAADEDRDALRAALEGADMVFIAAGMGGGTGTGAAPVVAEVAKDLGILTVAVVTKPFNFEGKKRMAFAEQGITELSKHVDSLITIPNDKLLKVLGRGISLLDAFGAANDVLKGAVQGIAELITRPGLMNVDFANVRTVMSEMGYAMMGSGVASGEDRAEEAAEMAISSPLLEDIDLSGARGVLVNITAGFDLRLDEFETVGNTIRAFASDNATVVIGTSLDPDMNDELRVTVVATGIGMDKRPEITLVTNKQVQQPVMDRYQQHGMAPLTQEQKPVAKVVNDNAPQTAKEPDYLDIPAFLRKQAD

wild-type FtsZ = target: T2, wild-type FtsZ (Escherichia coli, UniProt P0A9A6 1-383); test: co-sedimentation; FtsZ or variants (5 μM) with or without equal molar untagged ZapA, 2.5 mM GTP, no Ca2+, room temperature 5 min, ultracentrifugation; pellets and supernatants on SDS-PAGE; 50 mM HEPES pH 6.8, 10 mM MgCl2, 200 mM KCl (legend of Figure 4A); conditions: both partners purified
T2 construct: FtsZ, Escherichia coli; Forms filaments with GTP; GTP was present in the pull-down and the sedimentation assays; source: E. coli BL21/pLys, purified (Ni-NTA; His-SUMO tag cleaved with Ulp1); not shown: His-SUMO, N-terminal, cleaved
T2 sequence (looked up): T1 sequence (looked up) with N212D

[1] = target: the molecule itself; test: sedimentation of polymers; FtsZ variants (5 μM) in Pol buffer with 10 mM CaCl2 and 2.5 mM GTP, room temperature, ultracentrifugation at 100,000 rpm for 15 min at 25°C; polymerization of FtsZ with itself

binding result (FtsZ^D212N): binds
B1: H-SUMO-ZapA (natural protein, Escherichia coli, UniProt P0ADS2 1-109, looked up)
chain: MSAQPVDIQIFGRSLRVNCPPDQRDALNQAADDLNQRLQDLKERTRVTNTEQLVFIAALNISYELAQEKAKTRDYAASMEQRIRMLQQTIEQALLEQGRITEKTNQNFE
notes: ZapA, Escherichia coli; Held on Ni-NTA agarose by the His tag in the pull-down; source: E. coli BL21 (DE3)/pLys, purified (Ni-NTA); not shown: His, N-terminal, kept; SUMO, N-terminal, kept

binding result (wild-type FtsZ): binds
B2: untagged ZapA (natural protein, Escherichia coli, UniProt P0ADS2 1-109, looked up)
chain: B1 chain
notes: ZapA, Escherichia coli; source: E. coli BL21 (DE3)/pLys, purified (Ni-NTA; His-SUMO tag cleaved with Ulp1); not shown: His-SUMO, N-terminal, cleaved

B3: FtsZ^F2A (natural protein, Escherichia coli, UniProt P0A9A6 1-383, looked up)
chain: T1 sequence (looked up) with F2A, N212D
notes: FtsZ, Escherichia coli; source: E. coli BL21/pLys, purified (Ni-NTA; His-SUMO tag cleaved with Ulp1); not shown: His-SUMO, N-terminal, cleaved
binding result [1]: binds
